Among the data in patent US20130266516, “LAR Protein-Specific Ligand” (COMMISSARIAT A L'ENERGIE ATOMIQUE ET AUX ENERGIES, published 2013) are Kd values, retold here.

Holding throughout (conditions): label: radiolabel, biotin or Alexa Fluor 647/680
Data set [1] concerns the target T1, LAR protein (PTPRF, receptor-type protein tyrosine phosphatase F), endogenous on human cell lines (Homo sapiens, UniProt P10586 SEQ:30-1907). In words: MCF-7 whole cells, Scatchard analysis of radioligand-type cell binding; Cmax 251 pM. Here is the method: (§1) The binding curves were obtained for each cell type. From the specific binding, and using the Scatchard representation, the Kd and the Cmax were calculated for each cell type. Knowing the Cmax and the number of cells during the binding, the inventors were able to deduce therefrom an approximate number of targets per cell.

The target in data set [2] is T1, LAR protein (PTPRF, receptor-type …). In words: A-431 whole cells, Scatchard; Cmax 455 pM. Here is the method: as §1
Data set [3] shares this target. In words: HEK293-KDR whole cells, Scatchard; Cmax 119 pM. As for the experimental part: as §1
For data set [4] the target is unchanged. In words: HEK293 whole cells, Scatchard; Cmax 264 pM. Here is the method: as §1
The target is the same in data set [5]. In words: MDA-MB-231 whole cells, Scatchard; Cmax 131 pM. Here is the method: as §1

The term Kd denotes the equilibrium constant for the complex coming apart.

T1 sequence (P10586 30-1907): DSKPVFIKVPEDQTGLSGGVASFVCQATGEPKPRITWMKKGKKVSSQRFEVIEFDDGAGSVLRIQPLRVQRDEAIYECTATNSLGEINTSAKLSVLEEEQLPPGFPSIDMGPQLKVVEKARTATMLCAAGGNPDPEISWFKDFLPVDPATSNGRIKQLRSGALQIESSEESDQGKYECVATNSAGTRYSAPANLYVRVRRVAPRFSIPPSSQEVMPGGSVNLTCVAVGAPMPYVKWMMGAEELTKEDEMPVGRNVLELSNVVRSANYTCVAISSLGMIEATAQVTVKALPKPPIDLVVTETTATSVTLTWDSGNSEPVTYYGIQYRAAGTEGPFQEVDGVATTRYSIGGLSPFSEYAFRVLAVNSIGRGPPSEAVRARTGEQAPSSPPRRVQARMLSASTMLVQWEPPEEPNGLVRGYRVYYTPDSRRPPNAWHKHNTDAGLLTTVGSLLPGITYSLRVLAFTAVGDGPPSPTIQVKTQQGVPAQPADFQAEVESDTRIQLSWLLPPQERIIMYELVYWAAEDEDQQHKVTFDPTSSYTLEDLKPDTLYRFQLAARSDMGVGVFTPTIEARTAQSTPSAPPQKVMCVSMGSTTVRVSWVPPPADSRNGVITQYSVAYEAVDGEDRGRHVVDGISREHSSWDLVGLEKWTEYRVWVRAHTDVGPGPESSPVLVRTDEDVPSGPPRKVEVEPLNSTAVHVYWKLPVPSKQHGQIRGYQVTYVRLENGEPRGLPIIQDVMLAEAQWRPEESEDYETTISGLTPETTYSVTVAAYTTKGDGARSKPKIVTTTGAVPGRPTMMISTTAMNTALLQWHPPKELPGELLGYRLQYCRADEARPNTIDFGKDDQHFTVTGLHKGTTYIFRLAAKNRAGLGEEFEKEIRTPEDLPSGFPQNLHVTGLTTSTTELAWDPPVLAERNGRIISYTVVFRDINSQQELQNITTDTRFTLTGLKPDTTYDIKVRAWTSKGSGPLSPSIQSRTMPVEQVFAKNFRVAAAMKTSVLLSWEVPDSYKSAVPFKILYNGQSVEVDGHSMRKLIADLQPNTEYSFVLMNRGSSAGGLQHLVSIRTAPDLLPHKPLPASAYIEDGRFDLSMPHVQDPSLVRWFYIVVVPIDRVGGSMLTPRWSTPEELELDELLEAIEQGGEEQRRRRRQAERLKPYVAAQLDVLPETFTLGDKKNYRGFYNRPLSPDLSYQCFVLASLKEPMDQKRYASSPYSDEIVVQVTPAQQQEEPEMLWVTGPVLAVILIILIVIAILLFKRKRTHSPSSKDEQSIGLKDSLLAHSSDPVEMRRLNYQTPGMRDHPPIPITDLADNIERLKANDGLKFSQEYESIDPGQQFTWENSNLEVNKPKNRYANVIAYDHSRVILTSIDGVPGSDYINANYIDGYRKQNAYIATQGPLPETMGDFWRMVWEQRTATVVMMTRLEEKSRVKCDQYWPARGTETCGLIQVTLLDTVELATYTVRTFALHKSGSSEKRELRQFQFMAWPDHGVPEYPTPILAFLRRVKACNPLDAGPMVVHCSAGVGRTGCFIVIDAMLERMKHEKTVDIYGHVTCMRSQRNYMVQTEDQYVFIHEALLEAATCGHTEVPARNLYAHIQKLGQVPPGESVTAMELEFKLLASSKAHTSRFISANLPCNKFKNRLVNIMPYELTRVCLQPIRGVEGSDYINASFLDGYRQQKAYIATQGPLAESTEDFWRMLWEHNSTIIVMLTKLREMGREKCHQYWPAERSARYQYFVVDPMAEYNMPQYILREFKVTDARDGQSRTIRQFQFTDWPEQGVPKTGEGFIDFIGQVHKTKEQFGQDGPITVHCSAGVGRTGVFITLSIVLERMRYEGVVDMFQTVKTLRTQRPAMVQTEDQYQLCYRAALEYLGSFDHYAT

B1: V8 aptamer (ssRNA)
RNA: GGGAGAUGCUCUGUCAGACUACGACUGUCCCAGUAUGACGCGACUGCUUAGGUGGGAUGUUUCCCAUGCCUCGACUGGCUGGCAGGUUGAUGACAAG
modifications: 2'-F on all pyrimidines, 2'-OH purines
Turning to B1, the equilibrium dissociation constant (Kd) in data set [1] was 1.6 nM; in data set [2], 5.6 nM; in data set [3], 5.3 nM; in data set [4] it was 3.8 nM; in data set [5], 3 nM.
